Drawing on PMC6235402, “Paired Immunoglobulin-like Type 2 Receptor Alpha G78R variant alters ligand binding and confers protection to Alzheimer's disease” (PLoS Genetics, 2018), this text covers percent of G78 PILRA binding, Kd and kon for two molecules.

Test [1] concerns the target PILRA F76A, full length (human) (UniProt Q9UKJ1). As to the kind of experiment: flow cytometry on cells; 293T cells transfected with full-length PILRA variants, 48 h; incubated with soluble NPDC1-mFc at 50 ug/ml for 30 min on ice; anti-PILRA (APC) and anti-mouse IgG2a (FITC); percent of double-positive cells relative to G78 PILRA (100%). (In flow cytometry, cells or beads pass a laser one at a time.)

Test [2] addresses PILRA R72A, full length (human) (UniProt Q9UKJ1). The test is described as above.
Test [3] has as its target PILRA R78 (AD protective) variant, G78R (rs1859788), full length (human) (UniProt Q9UKJ1). The description is as above.
For test [4], the target named is PILRA S80G, full length (human) (UniProt Q9UKJ1). The test is described as above.
Sequence of PILRA S80G, full length (human) (Q9UKJ1 20-303 S80G): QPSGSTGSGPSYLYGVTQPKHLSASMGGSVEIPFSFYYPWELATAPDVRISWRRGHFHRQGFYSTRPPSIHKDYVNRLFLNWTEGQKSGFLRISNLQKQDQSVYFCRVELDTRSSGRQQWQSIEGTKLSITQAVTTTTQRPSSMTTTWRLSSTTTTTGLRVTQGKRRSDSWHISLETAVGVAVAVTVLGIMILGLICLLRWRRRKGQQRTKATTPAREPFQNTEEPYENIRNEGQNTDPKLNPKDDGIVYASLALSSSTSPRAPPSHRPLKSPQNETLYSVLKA
The target in test [5] is PILRA Q140A, full length (human) (UniProt Q9UKJ1). The description is as above.
Sequence of PILRA Q140A, full length (human) (Q9UKJ1 20-303 Q140A): as the sequence (Q9UKJ1 20-303 S80G) above, with G61S, Q121A counted along it
For test [6], the target named is PILRA R78 (AD protective) variant, G78R (rs1859788), full length (human) (UniProt Q9UKJ1). The test is described as above. The source holds these as a separate data set.
Sequence of PILRA R78 (AD protective) variant, G78R (rs1859788), full length (human) (Q9UKJ1 20-303, stated change not applied): as the sequence (Q9UKJ1 20-303 S80G) above, with G61S counted along it
The target of test [7] is PILRA S141A, full length (human) (UniProt Q9UKJ1). The test is described as above.
Sequence of PILRA S141A, full length (human) (Q9UKJ1 20-303 S141A): as the sequence (Q9UKJ1 20-303 S80G) above, with G61S, S122A counted along it
The target of test [8] is PILRA R78 (AD protective, G78R) extracellular domain (1-196 aa) fused to murine IgG2a Fc (human) (UniProt Q9UKJ1). As to the kind of experiment: SPR; NPDC1-His binding to mIgG2a-tagged PILRA variants (S6C Fig); who was immobilised and the conditions not given. For orientation: In SPR one partner is held on a chip, and binding of the other changes the refractive index at the surface.

Test [9] addresses T1, PILRA G78 (AD risk) extracellular domain (1-196 aa) fused to murine IgG2a Fc (human, UniProt Q9UKJ1 20-196, R78G (by the check's mend)).
T1 construct: signal peptide in the construct; PILRA, human, ECD residues 1-196 of AJ400841, glycine at position 78; also called G78 PILRA-mFc; PILRA-mFC; not shown: Fc (murine IgG2a), C-terminal, kept
Described as above. The following applies: both partners purified.

Where two headings read alike, the source gives them in different places.

One may read the Kd as a measure of binding affinity in units of concentration. Read a high Kd as a looser complex. Usually kon stands for the second-order rate constant of association. A high value points to faster complex formation.

T1 sequence (Q9UKJ1 20-196 R78G): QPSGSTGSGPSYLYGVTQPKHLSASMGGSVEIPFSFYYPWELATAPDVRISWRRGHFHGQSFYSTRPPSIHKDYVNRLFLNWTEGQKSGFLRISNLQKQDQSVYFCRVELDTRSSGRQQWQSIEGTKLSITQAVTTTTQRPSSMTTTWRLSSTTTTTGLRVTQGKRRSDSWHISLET
Sequence of PILRA F76A, full length (human) (Q9UKJ1 20-303 F76A): as the sequence (Q9UKJ1 20-303 S80G) above, with F57A, G61S counted along it
Sequence of PILRA R72A, full length (human) (Q9UKJ1 20-303 R72A): as the sequence (Q9UKJ1 20-303 S80G) above, with R53A, G61S counted along it

B1: NPDC1 extracellular domain (1-190 aa) fused to murine IgG2a Fc (Fc fusion)
chain: GHPDVAACPGSLDCALKRRARCPPGAHACGPCLQPFQEDQQGLCVPRMRRPPGGGRPQPRLEDEIDFLAQELARKESGHSTPPLPKDRQRLPEPATLGFSARGQGLELGLPSTPGTPTPTPHTSLGSPVSSDPVHMSPLEPRGGQGDGLALVLILA
As to B1, the percent of G78 PILRA binding was 20 % of G78 in test [1]; 20 % of G78 in test [2]; 35 % of G78 in test [3]; 60 % of G78 in [4]; 22 % of G78 in [5]; 44 % of G78 in test [6]. Besides, the percent of G78 PILRA binding in test [7] is 117 % of G78.

B2: NPDC1-His (ligand, human, UniProt Q9NQX5 35-190, looked up)
chain: B1 chain
notes: the construct and its limits are not described in the methods; Likely a soluble extracellular construct
In the case of B2, in [8], the Kd worked out at 76.5 nM and the kon was found to be 6800 M⁻¹ s⁻¹. In [9], this molecule came in with a Kd of 16.8 nM and a kon of 22000 M⁻¹ s⁻¹.
